From patent US20170122849

Tested on: (KW)2KKA-eGFP-AKK(WK)2 (DNA-staining eGFP) (synthetic construct (eGFP from Aequorea victoria?))
Assay: EMSA
Conditions: about; apparent Kd; TE/glycerol, 0.5x TBE 4-20% gel, EtBr stain

CTACTAGCACAATCGACTGTACGGACCGATCGAGTCACTAGCAGTCTAGCAA (double strand) [52-mer random sequence dsDNA]
Kd: 14.7 µM
